This note sets out measurements from PMC6336799, “Novel non-phosphorylative pathway of pentose metabolism from bacteria” (Scientific Reports, 2019).

What all share (assay type): biochemical, Herbaspirillum huttiense
Substrate in data set [1]: O=C(O)C(=O)C[C@@H](O)CO
The data set is described as follows: coupled spectrophotometric assay (alpha-KGSA dehydrogenase). The settings on record: 50 mM HEPES-NaOH pH 7.2, 1.5 mM NAD+ for coupling enzyme, 1 mM MgCl2 if necessary.

Substrate in data set [2]: O=C(O)C(=O)C[C@H](O)CO
The data set is described as above. The settings on record: 50 mM HEPES-NaOH pH 7.2, 1.5 mM NAD+ for coupling enzyme, 1 mM MgCl2 if necessary.

Substrate in data set [3]: C[C@H](O)[C@@H](O)CC(=O)C(=O)O
As to the kind of experiment: spectrophotometric NADH formation. The settings on record: NAD+ as coenzyme, 50 mM Tris-HCl pH 9.0.

Substrate in data set [4]: O=C(O)C(=O)C[C@H](O)CO
As to the kind of experiment: spectrophotometric NADH formation. The settings on record: NAD+ as coenzyme, 50 mM Tris-HCl pH 9.0.

Substrate in data set [5]: O=C(O)[C@@H](O)[C@H](O)[C@H](O)CO
The data set is described as follows: purified protein. Conditions: 50 mM HEPES-NaOH pH 7.2, 1.5 mM NAD+ for coupling enzyme.

Substrate in data set [6]: O=C(O)[C@@H](O)[C@H](O)[C@H](O)[C@H](O)CO
The data set is described as follows: purified protein. The settings on record: 50 mM HEPES-NaOH pH 7.2, 1.5 mM NAD+ for coupling enzyme.

What is called Km is the concentration of substrate that gives half-maximal velocity. The kcat is the number of substrate molecules converted per active site and unit of time at saturation.

B1: C785_RS13710 (KDP dehydratase) (Herbaspirillum huttiense subsp. lycopersici) (protein)
chain: MRLIQYRDLHGQRRVGIVNGASIQVLGEVDTMRELGLLAIERHTGLERLAQLLNTDRSEDYAAILAEGRILAPLDHPDPAHCRVSGAGTTHLGSATTRDKMHRRIEGDELDKTDTQLMIEWGIAGGRPAPGTVGVQPEWFYKGDGHCIVAPGQPLPRPDFALDGGEEPEIVGLYLIDDAGCPRRLGFAIGNEFSDHVMERRNYLYQGHSKLRHCAFGPELLVGLPPAHLVGMTRIRRRGRVIWEQEFLTGPDNMCHSIENLEYHTFKYAHLLHAGDVHAHFMGAANLSFAYSVRTEDGDSIEISIPDFGAPLVNGIQHVQSNLRPGGVRQL
notes: full length, N-terminal (His)6-tag, expressed in Pseudomonas putida KT2442-oxyR1 (pUCP/C785_RS13710), Ni-NTA
In the case of B1, the figures for the Km in data set [1] and in data set [2] were 533 ± 160 µM and 1910 ± 200 µM, respectively. The values for the kcat in data set [1] and in data set [2] were 0.202 ± 0.035 s⁻¹ and 0.18 ± 0.005 s⁻¹, respectively.

B2: C785_RS13675 (D-KDP/L-KDF 4-dehydrogenase) (Herbaspirillum huttiense subsp. putei IAM 15032) (protein)
chain: MSASTGRLAGKTVLITAAAQGIGRASTELFAREGARVIATDISKTHLEELASIAGVETHLLDVTDDDAIKALVAKVGTVDVLFNCAGYVAAGNILECDDKAWDFSFNLNAKAMFHTIRAVLPGMLAKKAGSIVNIASAASSVKGVANRFAYGASKAAVVGLTKSVAADFVSQGIRCNAICPGTIESPSLNQRISTQAKETGKSEDEVRAAFVARQPMGRIGKAEEVAALALYLASDESNFTTGSIHMIDGGWSN
notes: full length, N-terminal (His)6-tag (pQE-80L), expressed in E. coli DH5alpha, Ni-NTA
For the protein B2, in data set [3], the Km is 169 ± 3 µM and the kcat is 32.17 ± 0.483 s⁻¹. In data set [4], the Km worked out at 1120 ± 210 µM and the kcat was 27.17 ± 3.67 s⁻¹.

B3: C785_RS13685 (D-arabinonate dehydratase) (Herbaspirillum huttiense subsp. lycopersici) (protein)
chain: MKANSPIIRLNPVDDVVIARQQLISGTVLQDEGGLKVQGLIPAGHKMATRAISAGEPVKRYGQIIGTASQDIAPGQHVHTHNLAMAEFSREHHFGADVKPVDFVAEPATFMGIVRPDGRVATRNYIGVLTSVNCSATAARAIADYFRRDIHPEVLADYPNIDGVVALTHGQGCATDSQGEPLQILRRTLAGYATHPNFAAVLVVGLGCETNQISGLMESHNLKEGEYFHTFTIQGTGGTAKTVALGIEKIKKMLPKANDIKREPVSAKHLTLGLQCGGSDGYSGITANPALGAAVDLLVRHGGTAILSETPEIYGAEHLLTRRAVSPEVGEKLLARIAWWEEYCAKNDAEMNNNPSAGNKAGGLTTILEKSLGAVAKGGTTNLVDVYKYAETVTARGFVFMDTPGYDPISATGQVAGGANMICFTTGRGSAYGCAPAPSLKLATNTALWQRQEEDMDINCGEIADSNVTPQEVGERFFQMILDTASGKKTKSELHGYGQDEFVPWHIGVYT
notes: full length, N-terminal (His)6-tag (pQE-80L), expressed in E. coli DH5alpha, Ni-NTA; iron protein stored with Fe2+ and DTT
Turning to B3, the Km in the data set “purified protein [5]” is 202 ± 3 µM; in “purified protein [6]” it was 5910 ± 90 µM. Moreover, the values for the turnover number (kcat) in the data set “purified protein [5]” and in “purified protein [6]” were 9.03 ± 0.067 s⁻¹ and 0.0393 ± 0.0005 s⁻¹, respectively.
